Reference: patent US20250276075A1, “METHODS OF TREATING AXL-EXPRESSING CANCERS WITH ANTI-AXL ANTIBODIES, ANTIBODY FRAGMENTS AND THEIR IMMUNOCONJUGATES” (BIOATLA, INC., priority 2020, published 2025)
“Also recorded” adds a separate entry of the source.

Key:
human Axl = target: T1, human Axl (Homo sapiens, UniProt P30530); assay: BA3011 binding to human Axl in TME and normal tissue conditions
T1 sequence (P30530 26-894): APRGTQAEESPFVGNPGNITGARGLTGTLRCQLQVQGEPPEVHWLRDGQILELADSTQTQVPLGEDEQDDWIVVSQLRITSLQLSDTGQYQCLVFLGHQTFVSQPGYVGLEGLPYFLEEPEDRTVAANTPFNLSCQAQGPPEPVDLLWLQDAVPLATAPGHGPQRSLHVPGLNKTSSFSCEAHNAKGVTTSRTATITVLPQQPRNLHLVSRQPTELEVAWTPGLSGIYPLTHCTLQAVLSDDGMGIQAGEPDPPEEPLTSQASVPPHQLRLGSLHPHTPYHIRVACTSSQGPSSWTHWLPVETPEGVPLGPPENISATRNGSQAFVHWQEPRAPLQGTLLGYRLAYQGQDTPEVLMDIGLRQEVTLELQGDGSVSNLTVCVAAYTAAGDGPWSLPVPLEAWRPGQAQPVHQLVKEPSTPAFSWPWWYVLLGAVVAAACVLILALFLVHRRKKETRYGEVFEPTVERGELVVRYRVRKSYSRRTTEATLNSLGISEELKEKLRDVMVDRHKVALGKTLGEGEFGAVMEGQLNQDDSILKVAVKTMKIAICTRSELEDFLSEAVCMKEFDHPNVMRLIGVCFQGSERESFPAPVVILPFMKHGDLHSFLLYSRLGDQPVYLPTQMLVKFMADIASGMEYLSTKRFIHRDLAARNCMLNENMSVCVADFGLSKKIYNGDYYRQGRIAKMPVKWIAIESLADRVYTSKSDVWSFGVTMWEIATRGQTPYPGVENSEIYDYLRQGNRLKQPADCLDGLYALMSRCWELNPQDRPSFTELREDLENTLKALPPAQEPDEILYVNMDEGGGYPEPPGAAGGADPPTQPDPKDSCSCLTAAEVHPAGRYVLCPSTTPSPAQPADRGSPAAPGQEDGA

rat Axl = target: T2, rat Axl (Rattus norvegicus, UniProt A0A0G2K2H0); assay: BA3011 binding to rat Axl
T2 sequence (A0A0G2K2H0 21-879): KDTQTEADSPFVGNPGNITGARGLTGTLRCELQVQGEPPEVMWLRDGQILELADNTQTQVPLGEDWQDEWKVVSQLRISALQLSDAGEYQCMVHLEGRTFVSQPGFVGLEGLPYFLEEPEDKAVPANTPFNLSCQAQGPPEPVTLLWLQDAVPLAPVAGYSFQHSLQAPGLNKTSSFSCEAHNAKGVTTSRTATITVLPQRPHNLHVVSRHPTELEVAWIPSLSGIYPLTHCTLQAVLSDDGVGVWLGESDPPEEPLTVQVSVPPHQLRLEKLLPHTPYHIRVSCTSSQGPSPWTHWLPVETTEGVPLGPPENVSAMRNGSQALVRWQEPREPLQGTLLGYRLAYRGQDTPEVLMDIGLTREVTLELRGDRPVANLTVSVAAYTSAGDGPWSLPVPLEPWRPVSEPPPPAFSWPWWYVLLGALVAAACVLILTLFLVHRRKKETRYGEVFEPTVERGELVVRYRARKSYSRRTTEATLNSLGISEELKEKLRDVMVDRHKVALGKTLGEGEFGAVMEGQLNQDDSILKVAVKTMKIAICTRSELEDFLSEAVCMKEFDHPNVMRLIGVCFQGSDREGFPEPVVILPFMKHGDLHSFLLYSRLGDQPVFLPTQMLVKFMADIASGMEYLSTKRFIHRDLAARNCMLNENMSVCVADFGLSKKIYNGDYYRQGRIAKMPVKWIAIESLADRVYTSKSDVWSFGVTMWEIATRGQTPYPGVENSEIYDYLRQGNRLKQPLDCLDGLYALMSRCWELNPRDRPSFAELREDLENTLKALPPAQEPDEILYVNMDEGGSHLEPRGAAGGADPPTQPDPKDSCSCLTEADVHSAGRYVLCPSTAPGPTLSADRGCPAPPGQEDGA

[1] = BA3011 repeat dose intravenous toxicology study in monkey; assay type: in vivo, cynomolgus monkey
Procedure: The nonclinical intravenous (IV) toxicity of BA3011 was evaluated in the monkey in an initial dose-range finding study followed by a definitive Good Laboratory Practice repeat dose toxicology study. […] Many of the toxicities observed with BA3011 are similar to other ADCs conjugated to MMAE.
Based on the results at the 5 and 10 mg/kg/dose, the no-observed-adverse-effect-level (NOAEL) of BA3011 was considered to be 1 mg/kg/dose for both males and females. […] The highest non-severely toxic dose (HNSTD) was 5 mg/kg/dose, with C0 on Day 22 at 111 μg/mL and AUC0-inf at 2370 μg·h/mL.

B1: Mecbotamab vedotin (conjugate, chains of the INN, looked up)
VH: EVQLVQSGAEVKKPGATVKISCKVSGYSFWGATMNWIRQPPGKGLEWIGLIKPSNGGTSYNQKFKGRVTISADKSISTAYLQWSSLKASDTAMYYCAHGHYESYEAMDYWGQGTLVTVSS
VL: DIQMTQSPSSLSASVGDRVTITCKASQDVVSAVAWYQQKPGQAPRLLIYWQDTRHTGVPSRFSGSGSGTEFTLTISSLQPDDFATYYCQEHFSPPLTFGQGTKVEIK
modifications: MC-vc-PAB-MMAE conjugate
Which “binding to human Axl” value (human Axl; conditions mimicking the TME (pH 6.0-7.0)) does the source give for B1 here?
Its value is “high affinity and specificity”.

And the “binding to human Axl” value (human Axl; conditions mimicking the normal tissue environment (pH 7.3-7.4))?
The value was “reduced binding”.

What about the “binding to rat Axl” value (rat Axl) of the same molecule?
The value was “not mouse or rat Axl; also recorded: lacked binding to the rodent enzyme”.

What about the “pathological changes in lymphoid organs” value ([1]; 10 mg/kg/dose in males and 5 mg/kg/dose in females) of the same molecule?
Its value is “adverse pathological changes in lymphoid organs”.

And the mortality ([1]; 10 mg/kg/dose, Days 1 and 22, IV slow bolus)?
Its mortality is “early deaths in females”.

What about the hematological changes ([1]; 5 and 10 mg/kg/dose in both sexes) of the same molecule?
The hematological changes was “adverse hematological changes”.

And the “changes in body weight, electrocardiogram (ECG), ophthalmology, or urinalysis” value ([1]; any of the dose levels tested)?
The value was “No test article-related changes”.

And the “highest non-severely toxic dose (HNSTD)” value ([1]; cynomolgus monkey, in vivo)?
Its value is 5 mg/kg/dose.
